# Measured values as given in patent US20240002497A1 (Merck Sharp & Dohme, published 2024).
# Read-outs that look alike come from different tables or passages of the source.
# Experiments:
# [1] = biological target: T1, rhNav1.7α + β1-β2-β3 (rhesus Nav1.7α co-expressed with Navβ1, Navβ2 and Navβ3) (rhesus monkey); test: binding FACS; plus = higher activity than reference
# T1 construct: also called rhNav1.7-beta1-beta2-beta3
# [2] = biological target: T2, muNav1.7α (murine Nav1.7α) (murine, UniProt Q62205 1-1984); test: as above
# T2 construct: HEK Jmp-In cells
# [3] = biological target: T3, huNav1.7α + β1 (human); test: binding FACS, HEK
# T3 construct: HEK293 cells; also called huNav1.7-beta1; huNav1.7-β1
# [4] = biological target: T4, huNav1.7α (human, UniProt Q15858 1-1988); test: binding FACS, HEK
# T4 construct: HEK cells expressing the α subunit without β subunits; also called huNav1.7 (alpha-subunit); Human Nav1.7α
# [5] = biological target: rhNav1.7α + β1-β2-β3 (rhesus monkey); test: cell-based or functional assay
# [6] = biological target: T3, huNav1.7α + β1; test: cell-based or functional assay
# [7] = biological target: T5, ratNav1.7α (rat, UniProt O08562 1-1984); test: cell-based or functional assay
# [8] = biological target: rhNav1.7α + β1-β2-β3 (rhesus monkey); test: cell-based or functional assay; remark: listed apart in the source
# [9] = biological target: T3, huNav1.7α + β1; test: cell-based or functional assay; remark: listed apart in the source
# [10] = biological target: T5, ratNav1.7α; test: cell-based or functional assay; remark: listed apart in the source
# [11] = biological target: rhNav1.7α + β1-β2-β3 (rhesus monkey); test: cell-based or functional assay; remark: listed apart in the source
# [12] = biological target: T3, huNav1.7α + β1; test: cell-based or functional assay; remark: listed apart in the source
# [13] = biological target: rhNav1.7α + β1-β2-β3 (rhesus monkey); test: cell-based or functional assay; remark: listed apart in the source
# [14] = biological target: T3, huNav1.7α + β1; test: cell-based or functional assay; remark: listed apart in the source
# [15] = biological target: rhNav1.7α + β1-β2-β3 (rhesus monkey); test: cell-based or functional assay; remark: listed apart in the source
# [16] = biological target: T3, huNav1.7α + β1; test: cell-based or functional assay; remark: listed apart in the source
# [17] = biological target: T6, huNav1.7α + β1-β2-β3 (human, UniProt Q15858 1-1988; A5A6L6 19-218; O60939 30-215; Q2KI11 23-215); test: binding FACS, CHO FlpIn
# T6 construct: also called huNav1.7-beta1-beta2-beta3; huNav1.7-β1-β2-β3
# Procedure, shortened: (§1)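 Assessment used purified FLAG3-tagged ISVD incubated on cells for 30 minutes at 4° C in PBS containing 10% FBS and NaN₃, with cells washed between steps. Propidium iodide (1 μg/mL) staining removed dead cells from analysis.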
# [18] = biological target: T7, rhNav1.7α + β1-β2-β3 (rhesus monkey); test: binding FACS, CHO FlpIn
# T7 construct: also called rhNav1.7-beta1-beta2-beta3; rhNav1.7-β1-β2-β3
# Procedure, shortened: as §1
# [19] = biological target: T8, muNav1.7α (murine, UniProt Q62205 1-1984); test: binding FACS, HEK JmpIn
# T8 construct: HEK JmpIn cells; also called murine Nav1.7α
# Procedure, shortened: as §1
# [20] = biological target: T6, huNav1.7α + β1-β2-β3; test: binding FACS, CHO FlpIn; remark: listed apart in the source
# Experimental: (§2) Binding of the ISVDs to cell-expressed Nav1.7α was detected via murine anti-Flag (Sigma, catalog #F1804). Briefly, cells were resuspended in FACS buffer (PBS, 10% FBS, NaN₃) and transferred to a 96-well V-bottom plate at 1×10^5 cells/well. Purified FLAG3-tagged ISVD was diluted in FACS buffer and added to the cells for 30 minutes at 4° C. […] Prior to the read-out, the samples were resuspended in 1 μg/mL propidium iodide (Sigma, catalog #P4170) to exclude dead cells. Between each step, the cells were centrifuged for 5 minutes at 200 grams and washed with 100 μL/well FACS buffer.
# [21] = biological target: T7, rhNav1.7α + β1-β2-β3; test: binding FACS, CHO FlpIn; remark: listed apart in the source
# Experimental: as §2
# [22] = biological target: T8, muNav1.7α; test: binding FACS, HEK JmpIn; remark: listed apart in the source
# [23] = biological target: T9, huNav1.7α + β1 (human Nav1.7α co-expressed with Navβ1) (human, UniProt Q15858 1-1988; Q07699 19-218); test: cell-based or functional assay
# [24] = biological target: T10, huNav1.7α (human Nav1.7 alpha subunit, expressed without β subunits) (human, UniProt Q15858 1-1988); test: binding FACS, HEKa cells
# T10 construct: also called HEK293 human Nav1.7α; HEKa Nav1.7α
# [25] = biological target: T10, huNav1.7α (human Nav1.7 alpha subunit, …); test: binding FACS, HEKa cells; remark: listed apart in the source
# [26] = biological target: T9, huNav1.7α + β1 (human Nav1.7α …); test: binding FACS, HEKa/β1 cells
# [27] = biological target: T9, huNav1.7α + β1 (human Nav1.7α …); test: binding FACS, HEKa/β1 cells; remark: listed apart in the source
# [28] = biological target: T11, huNav157 chimera 14 + β1-β2-β3 (human); test: binding FACS, HEK FlpIn cells
# T11 construct: Chimera of huNav1.7α (extracellular loops and transmembrane helices) and huNav1.5α (intracellular loops); also called Nav157ch14-β1-β2-β3; huNav157 chimera 14-beta1-beta2-beta3
# [29] = biological target: T12, huNav157 chimera 14 (human); test: binding FACS, HEK FlpIn cells
# T12 construct: Chimera without β subunits; also called Nav157ch14
# [30] = biological target: T11, huNav157 chimera 14 + β1-β2-β3; test: binding FACS, HEK FlpIn cells; remark: listed apart in the source
# [31] = biological target: T12, huNav157 chimera 14; test: binding FACS, HEK FlpIn cells; remark: listed apart in the source
# [32] = biological target: T10, huNav1.7α (human Nav1.7 alpha subunit, …); test: binding FACS, huNav1.7α without β; minus = lower than reference
# [33] = biological target: T10, huNav1.7α (human Nav1.7 alpha subunit, …); test: binding FACS, huNav1.7α without β; minus = weaker than reference
# [34] = biological target: T13, rhNav1.7α + β1-β2-β3 (rhesus Nav1.7α co-expressed with Navβ1, Navβ2 and Navβ3 on cells) (rhesus monkey (α subunit); β subunits …); test: cell-based or functional assay
# [35] = biological target: huNav1.7α + β1 on HEK cells (human, UniProt Q15858 1-1988; Q07699 19-218); test: cell-based or functional assay
# [36] = biological target: T14, huNav1.7α + β1-β2-β3 (human Nav1.7α co-expressed with human Navβ1, Navβ2 and Navβ3 on cells) (human); test: binding FACS, CHO FlpIn cells
# T14 construct: also called huNav1.7-beta1-beta2-beta3; CHO FlpIn huNav1.7α + β1-β2-β3
# Procedure, shortened: as §1
# [37] = biological target: T13, rhNav1.7α + β1-β2-β3 (rhesus Nav1.7α …); test: binding FACS, CHO FlpIn cells
# Procedure, shortened: as §1
# [38] = biological target: T14, huNav1.7α + β1-β2-β3 (human Nav1.7α …); test: binding FACS, CHO FlpIn cells; remark: listed apart in the source
# Experimental: as §2
# [39] = biological target: T13, rhNav1.7α + β1-β2-β3 (rhesus Nav1.7α …); test: binding FACS, CHO FlpIn cells; remark: listed apart in the source
# Experimental: as §2
# T5 sequence (O08562 whole entry): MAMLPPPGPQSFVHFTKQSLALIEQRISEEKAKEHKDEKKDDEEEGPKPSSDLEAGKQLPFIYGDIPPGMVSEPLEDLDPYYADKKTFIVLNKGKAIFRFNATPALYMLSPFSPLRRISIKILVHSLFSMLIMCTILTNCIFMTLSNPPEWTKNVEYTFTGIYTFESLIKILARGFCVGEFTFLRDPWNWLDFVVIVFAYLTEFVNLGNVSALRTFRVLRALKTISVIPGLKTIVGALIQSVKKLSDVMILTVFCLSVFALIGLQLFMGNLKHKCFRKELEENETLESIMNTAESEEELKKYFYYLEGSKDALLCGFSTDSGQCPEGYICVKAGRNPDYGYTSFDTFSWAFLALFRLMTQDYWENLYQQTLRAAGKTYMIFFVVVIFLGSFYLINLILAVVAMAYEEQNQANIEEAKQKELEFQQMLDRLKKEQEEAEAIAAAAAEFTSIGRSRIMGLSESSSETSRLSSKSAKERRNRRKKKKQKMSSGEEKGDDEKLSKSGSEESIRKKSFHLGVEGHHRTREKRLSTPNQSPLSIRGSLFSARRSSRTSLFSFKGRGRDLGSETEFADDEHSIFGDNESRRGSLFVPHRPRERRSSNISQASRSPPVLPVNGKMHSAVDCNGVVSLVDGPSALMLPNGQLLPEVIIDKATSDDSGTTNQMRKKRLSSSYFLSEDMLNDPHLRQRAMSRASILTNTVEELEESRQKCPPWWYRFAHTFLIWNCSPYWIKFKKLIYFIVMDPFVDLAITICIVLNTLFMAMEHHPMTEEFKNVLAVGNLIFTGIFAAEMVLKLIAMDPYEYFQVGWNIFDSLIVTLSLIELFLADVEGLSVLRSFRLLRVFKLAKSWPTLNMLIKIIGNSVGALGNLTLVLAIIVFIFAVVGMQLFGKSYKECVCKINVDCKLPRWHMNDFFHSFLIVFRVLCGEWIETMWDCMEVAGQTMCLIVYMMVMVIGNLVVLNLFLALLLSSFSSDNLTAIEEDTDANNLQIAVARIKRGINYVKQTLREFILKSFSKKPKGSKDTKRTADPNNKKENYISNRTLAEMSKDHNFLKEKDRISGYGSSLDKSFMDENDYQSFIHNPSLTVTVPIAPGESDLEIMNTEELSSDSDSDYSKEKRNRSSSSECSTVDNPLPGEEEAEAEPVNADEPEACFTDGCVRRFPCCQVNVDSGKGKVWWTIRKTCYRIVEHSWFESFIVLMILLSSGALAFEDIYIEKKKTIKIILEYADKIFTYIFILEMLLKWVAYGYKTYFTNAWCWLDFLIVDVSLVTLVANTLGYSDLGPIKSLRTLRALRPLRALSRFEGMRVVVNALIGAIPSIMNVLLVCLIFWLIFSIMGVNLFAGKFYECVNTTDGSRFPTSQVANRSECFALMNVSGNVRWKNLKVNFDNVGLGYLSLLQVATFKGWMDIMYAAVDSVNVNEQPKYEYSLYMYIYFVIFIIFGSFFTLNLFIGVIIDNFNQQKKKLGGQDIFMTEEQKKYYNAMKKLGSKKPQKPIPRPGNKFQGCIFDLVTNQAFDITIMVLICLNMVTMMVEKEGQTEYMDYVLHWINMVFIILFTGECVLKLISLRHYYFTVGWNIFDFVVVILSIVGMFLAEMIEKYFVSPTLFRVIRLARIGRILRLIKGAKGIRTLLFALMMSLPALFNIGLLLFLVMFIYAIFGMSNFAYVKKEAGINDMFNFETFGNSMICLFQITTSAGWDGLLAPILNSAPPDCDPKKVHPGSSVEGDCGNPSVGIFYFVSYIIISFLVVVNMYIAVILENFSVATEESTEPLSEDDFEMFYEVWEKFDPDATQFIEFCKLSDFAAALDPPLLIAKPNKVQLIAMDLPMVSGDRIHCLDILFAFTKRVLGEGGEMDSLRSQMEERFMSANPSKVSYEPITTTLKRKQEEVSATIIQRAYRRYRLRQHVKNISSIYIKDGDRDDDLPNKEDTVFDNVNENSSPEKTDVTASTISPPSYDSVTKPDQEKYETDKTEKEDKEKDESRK
binder,measurement,setting,value
"F010301893 (VHH, also called F0103464B09(L11V, E44Q, S68T, T79Y, R81Q, S82aN, N82bS, K83R, G88A, V89L); E44Q) VHH: EVQLVESGGGVVQPGGSLRLSCATTSRAFIRDVFTGWYRRVPGKQRELVARIYNGGNTNYADFAKGRFTISRDNAKKMVYLQMNSLRPEDTALYYCLFSGTINTGREYRSGDYWGQGTLVTVSS",EC50 fold change compared to reference,[1],3 fold
same,EC50 fold change compared to reference,[2],3 fold
"69AVB (Fc fusion, also called F010301656-5GS-Fc; F10301656* (ISVD with human IgG1 Fc); not shown: 5GS linker; human IgG1 Fc) EVQLVESGGGLAQPGGSLRLSCAASGPVFNINRMAWYRRAPGKQRELVAYVTPTGDISYTDSVKGRFTISRDGSKRWSLQMNSLTPEDTAVYYCRALLQPDSYSNTRTYWGQGTLVTVSS",EC50,[3],9 nM
same,EC50,[4],11 nM
same,"Qpatch IC50 [M], HEK cells",[5],8e-09 M
same,"Qpatch IC50 [M], HEK cells",[6],1.3e-08 M
same,"QPatch electrophysiology IC50 [M], HEK cells",[7],2.1e-08 M
same,"QPatch electrophysiology IC50 [M], HEK cells",[8],8e-09 M
same,Human SA ratio of QPatch IC50,[9],2
same,"QPatch electrophysiology IC50 [M], HEK cells",[9],1.3e-08 M
same,"QPatch electrophysiology IC50 [M], HEK cells, + 10 µM human SA",[9],2.6e-08 M
same,Qpatch IC50,[10],21 nM
same,Qpatch IC50,[11],8 nM
same,Qpatch IC50,[12],13 nM
F010302363 (VHH) VHH: EVQLVESGGGVVQPGGSLRLSCAASHRAFIRDVFTGWYRQAPGKQRELVARIYEGGNTQYADSVKGRFTISRDNAKKTVYLQMNSLRPEDTALYYCLFSGTISTGREYRSGDYWGQGTLVTVSS,"IC50 [M], electrophysiology, HEK cells",[13],3.6e-08 M
same,"IC50 [M], electrophysiology, HEK cells",[14],1.1e-08 M
same,Qpatch IC50,[15],166 nM
same,Qpatch IC50,[16],7 nM
same,Bmax,[17],100%
same,EC50,[17],4.2 nM
same,Bmax,[18],96%
same,EC50,[18],9.3 nM
same,Bmax,[19],18%
same,EC50,[19],48 nM
same,EC50,[20],4.2 nM
same,EC50,[21],9.3 nM
same,EC50,[22],48 nM
"F010302391 (VHH, also called F0103387G05(L11V, A14P, D23A, H37Y, G40A, A41P, D53G, D54G, D58G, N82bS, N83R, V89L, R105Q)-FLAG3-HIS6) VHH: EVQLVESGGGVVQPGGSLRLSCAASGRILRIGYMRWYRQAPGKQREFVARITGGSATGYADSVKGRFTISRDNAKNTVYLQMNSLRPEDTALYYCEALVTASVRGGSIHSGTYWGQGTLVTVSS","IC50 [M], electrophysiology on HEK huNav1.7α + β1 cells",[23],3.2e-08 M
same,Bmax,[24],100%
same,EC50,[24],1.9 nM
same,EC50,[25],1.9 nM
same,EC50,[26],2 nM
same,EC50,[27],2 nM
same,EC50,[28],2.3 nM
same,Bmax,[29],100%
same,EC50,[29],2.7 nM
same,EC50,[30],2.3 nM
same,EC50,[31],2.7 nM
"F010301648 (VHH, also called F0103387G05(L11V, A14P, N82bS, N83R, V89L, E93N, R105Q); E93N) VHH: EVQLVESGGGVVQPGGSLRLSCDASGRILRIGYMRWHRQGAGKQREFVARITDDSATDYADSVKGRFTISRDNAKNTVYLQMNSLRPEDTALYYCNALVTASVRGGSIHSGTYWGQGTLVTVSS",Bmax,[24],25%
same,EC50,[24],89 nM
same,EC50,[26],3.2 nM
same,EC50,[28],3.4 nM
same,Bmax,[29],30%
same,EC50,[29],210 nM
same,Bmax fold change compared to reference,[32],-4 fold
same,EC50 fold change compared to reference,[33],-20 fold
"F010302383 (VHH, also called F0103387G04(L11V, A12V, K33R, R39Q, S50Y, S56D, T60A, D72G, W78V, S79Y, T83R, V89L, N93R, D99S, N100cG) + FLAG3-HIS6) VHH: EVQLVESGGGVVQPGGSLRLSCAASGPVFNINRMAWYRQAPGKQRELVAYVTPTGDISYADSVKGRFTISRGGSKRVYLQMNSLRPEDTALYYCRALLQPSSYSGTRTYWGQGTLVTVSS","IC50 [M], in vitro electrophysiology, HEK rhNav1.7α + β1-β2-β3",[34],3e-09 M
same,"IC50 [M], in vitro electrophysiology, HEK huNav1.7α + β1",[35],2.2e-08 M
same,Bmax,[36],100%
same,EC50,[36],6.8 nM
same,Bmax,[37],100%
same,EC50,[37],4.5 nM
same,EC50,[38],6.8 nM
same,EC50,[39],4.5 nM
